Target: BCL11A (Homo sapiens) (UniProt Q9H165)
Assay: EMSA supershift
Settings: with NF-Y, EMSA with nuclear extracts, 100x molar excess competitors, buffer and temperature not given (refs 25-27)

Sequence of UniProt Q9H165 (Q9H165 whole entry): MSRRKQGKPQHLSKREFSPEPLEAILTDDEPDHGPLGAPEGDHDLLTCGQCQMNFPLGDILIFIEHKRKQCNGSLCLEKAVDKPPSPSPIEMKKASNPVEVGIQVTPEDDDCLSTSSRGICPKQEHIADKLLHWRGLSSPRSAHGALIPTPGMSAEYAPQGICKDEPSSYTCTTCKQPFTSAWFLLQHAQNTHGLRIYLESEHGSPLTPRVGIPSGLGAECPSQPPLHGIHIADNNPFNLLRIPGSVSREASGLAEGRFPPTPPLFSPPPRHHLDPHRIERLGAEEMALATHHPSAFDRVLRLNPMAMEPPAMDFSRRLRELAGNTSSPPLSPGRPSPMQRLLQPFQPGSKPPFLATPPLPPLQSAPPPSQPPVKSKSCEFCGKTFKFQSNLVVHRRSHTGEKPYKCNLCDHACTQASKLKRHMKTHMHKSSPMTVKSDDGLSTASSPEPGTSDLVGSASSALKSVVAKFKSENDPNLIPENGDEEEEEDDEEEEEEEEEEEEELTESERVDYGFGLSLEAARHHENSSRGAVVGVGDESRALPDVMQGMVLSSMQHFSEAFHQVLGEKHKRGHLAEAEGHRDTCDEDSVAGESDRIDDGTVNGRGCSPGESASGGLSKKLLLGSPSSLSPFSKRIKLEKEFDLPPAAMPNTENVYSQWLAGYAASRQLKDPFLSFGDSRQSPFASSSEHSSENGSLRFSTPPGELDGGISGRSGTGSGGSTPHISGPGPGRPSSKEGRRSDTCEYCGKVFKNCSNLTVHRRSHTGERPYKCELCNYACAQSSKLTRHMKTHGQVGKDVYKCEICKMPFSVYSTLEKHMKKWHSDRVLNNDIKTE

Sequence: GCCTTGCCTTGACCAATAGCCTTGACAAGGCAAACTTGACCAATAGTCTTAGAGTATCCAGTGAGGCCAGGGGCCGGCGGCTGGCTAGGGATGA (double strand) [Wt proximal gamma-globin promoter probe (94 bases)]
- binding signal (% of NF-Y band supershifted) (D14 extract): 40
- binding signal (% of NF-Y band supershifted) (K562 extract): 30
- binding signal (% of NF-Y band supershifted) (fetal liver extract): 30
